Test in all cases: cross-linking; BS3 (0.5 or 5 mM), 5 µM protein in solution without liposomes, 20 mM Hepes, 150 mM NaCl, pH 7.4; 30 min room temperature, then 2 min 37°C with BS3; SDS-PAGE, Coomassie; step: monomers to dimer
Test [1] has as its target BIN1 N-BAR domain (1-254) D151N (human).
Test [2] has as its target BIN1 N-BAR domain (1-254) K35N (human).
Test [3] concerns the target BIN1 N-BAR domain (1-254) R154Q (human).
The target in test [4] is BIN1 N-BAR domain (1-254), wild type (human).

Broadly, the stoichiometry N is a count of units in the complex or per binding partner. For “BIN1 N-BAR domain (1-254) D151N (domain or fragment)”, in test [1], the stoichiometry N was determined as 2.

In test [2], “BIN1 N-BAR domain (1-254) K35N (domain or fragment)” yielded a stoichiometry N of 2.

Take “BIN1 N-BAR domain (1-254) R154Q (domain or fragment)”: in test [3], the stoichiometry N came out at 2.

“BIN1 N-BAR domain (1-254), wild type (domain or fragment)”: the stoichiometry N in test [4] was found to be 2.
